This is an account of results in publication PMC7353164.

The target of this assay is Tim21HA (yeast) (UniProt P53220). The assay is described as follows: co-IP.
Chain of UniProt P53220 (P53220 71-239): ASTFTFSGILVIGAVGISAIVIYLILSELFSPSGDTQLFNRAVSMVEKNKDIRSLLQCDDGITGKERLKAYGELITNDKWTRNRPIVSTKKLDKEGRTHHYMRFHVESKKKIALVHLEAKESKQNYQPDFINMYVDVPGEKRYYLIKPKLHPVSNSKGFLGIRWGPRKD

On to “Mgr2 G26L (from UniProt Q02889 1-113) (natural protein)”, for which the percent reduction of co-precipitation against wild type turned out to be 50%.
